This passage reports Ki results from patent US20230265151A1, “GIP/GLP1 CO-AGONIST COMPOUNDS” (priority 2020, published 2023).

The target in assay [1] is T1, human GIP receptor (human, UniProt P48546 22-466).
T1 construct: whole, on cells; also called hGIPR; human glucose-dependent insulinotropic polypeptide receptor
T1 sequence (looked up): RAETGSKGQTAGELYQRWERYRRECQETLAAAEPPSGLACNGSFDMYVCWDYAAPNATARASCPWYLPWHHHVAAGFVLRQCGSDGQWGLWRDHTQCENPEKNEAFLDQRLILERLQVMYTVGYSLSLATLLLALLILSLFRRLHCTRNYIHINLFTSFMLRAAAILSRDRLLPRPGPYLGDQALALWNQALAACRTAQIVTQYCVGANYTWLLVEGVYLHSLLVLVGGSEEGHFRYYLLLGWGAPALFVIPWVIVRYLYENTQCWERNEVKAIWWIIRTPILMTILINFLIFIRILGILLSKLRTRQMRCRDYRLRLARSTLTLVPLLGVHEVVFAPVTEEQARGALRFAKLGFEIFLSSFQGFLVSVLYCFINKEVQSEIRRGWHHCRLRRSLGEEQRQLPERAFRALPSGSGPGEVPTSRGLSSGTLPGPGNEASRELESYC
In words: SPA competition vs [125I]-GIP, hGIPR membranes. As for the experimental part: The binding buffer contains 25 mM HEPES, pH 7.4, 2.5 mM CaCl₂, 1 mM MgCl₂, 0.1% (w/v) bacitracin, 0.003% (w/v) TWEEN®-20, and Roche Complete™ Protease Inhibitors without EDTA. […] Plates are sealed and mixed on a plate shaker (setting 6) for 1 minute and read with a PerkinElmer Trilux MicroBeta® scintillation counter after 2.5 to 12 hours of incubation/settling time at room temperature.
(§1) Data are analyzed using four-parameter (curve maximum, curve minimum, IC₅₀, Hill slope) nonlinear regression routines (Genedata Screener, version 12.0.4, Genedata AG, Basal, Switzerland). […] Values for Kᵢ are reported as the geometric mean, with error expressed as the standard error of the mean (SEM) and n is equal to the number of independent replicates (determined in assays performed on different days). Geometric Means are calculated as follows: […]

Assay [2] has as its target T2, human GLP-1 receptor (human, UniProt P43220 24-463).
T2 construct: whole, on cells; also called hGLP-1R; human glucagon-like peptide-1 receptor
Description: SPA competition vs [125I]-GLP-1, hGLP-1R membranes. The method, then: The binding buffer contains 25 mM HEPES, pH 7.4, 2.5 mM CaCl₂, 1 mM MgCl₂, 0.1% (w/v) bacitracin, 0.003% (w/v) TWEEN®-20, and Roche Complete™ Protease Inhibitors without EDTA.
as §1

*1 amine or outer side, *2 acyl side, *3 side chain or, on linkers, in order; H or OH if unused. Where no end group is shown, it is not given here. Side-chain parts run from the residue outwards. [ ]: non-standard residue; d: D form. The star is where a group is joined. αMePhe(2-F) = C[C@](N)(Cc1ccccc1F)C(=O)O; γGlu = O=C(O)[C@H](CCC(=O)[*:2])N[*:1]; C14 diacid = O=C(O)CCCCCCCCCCCCC(=O)*; αMeY = C[C@](N)(Cc1ccc(O)cc1)C(=O)O; αMeL = CC(C)C[C@](C)(N)C(=O)O; Orn = NCCC[C@H](N)C(=O)O; AEEA = NCCOCCOCC(=O)O; Aib = CC(C)(N)C(=O)O

B1: Y-Aib-EGT-αMeF(2F)-TSD-4Pal-Aib-I-αMeL-LD-Orn-K((2-[2-(2-Amino-ethoxy)-ethoxy]-acetyl)-(γ-Glu)-CO-(CH2)12-CO2H)AQ-Aib-EFI-(D-Glu)-αMeY-LIK((2-[2-(2-Amino-ethoxy … (peptide)
peptide: YXEGTXTSDXXIXLDXKAQXEFIXXLIKGGPSSGAPPPS
modifications: Aib2, αMeF(2F)6, 4Pal10, Aib11, αMeL13, Orn16, K17(Z1), Aib20, D-Glu24, αMeY25, K28(Z1), C-term NH2; Z1=AEEA-(γ-Glu)-CO-(CH2)12-CO2H
The Ki is a measure of affinity in units of concentration, obtained from inhibition or displacement. Low readings indicate tighter binding, high ones weaker binding. Regarding B1, the Ki in assay [1] stood at 0.0747 nM; in assay [2] it was 2.17 nM.

B2: Y-Aib-EGT-αMeF(2F)-TSDV-Aib-I-αMeL-LD-Orn-K((2-[2-(2-Amino-ethoxy)-ethoxy]-acetyl)2-(γ-Glu)-CO-(CH2)12-CO2H)AQ-Aib-EFI-(D-Glu)-αMeY-LIEGGK((2-[2-(2-Amino-ethoxy … (peptide)
peptide: Y[Aib]EGT[αMePhe(2-F)]TSDV[Aib]I[αMeL]LD[Orn]K([AEEA-AEEA-γGlu-C14 diacid])AQ[Aib]EFI[dE][αMeY]LIEGGK([AEEA-AEEA-γGlu-C14 diacid])SSGAPPPS-NH2
modifications: N-terminus assumed
SMILES: CC[C@H](C)[C@H](NC(=O)[C@H](CC(C)C)NC(=O)[C@](C)(Cc1ccc(O)cc1)NC(=O)[C@@H](CCC(=O)O)NC(=O)[C@@H](NC(=O)[C@H](Cc1ccccc1)NC(=O)[C@H](CCC(=O)O)NC(=O)C(C)(C)NC(=O)[C@H](CCC(N)=O)NC(=O)[C@H](C)NC(=O)[C@H](CCCCNC(=O)COCCOCCNC(=O)COCCOCCNC(=O)CC[C@H](NC(=O)CCCCCCCCCCCCC(=O)O)C(=O)O)NC(=O)[C@H](CCCN)NC(=O)[C@H](CC(=O)O)NC(=O)[C@H](CC(C)C)NC(=O)[C@](C)(CC(C)C)NC(=O)[C@@H](NC(=O)C(C)(C)NC(=O)[C@@H](NC(=O)[C@H](CC(=O)O)NC(=O)[C@H](CO)NC(=O)[C@@H](NC(=O)[C@](C)(Cc1ccccc1F)NC(=O)[C@@H](NC(=O)CNC(=O)[C@H](CCC(=O)O)NC(=O)C(C)(C)NC(=O)[C@@H](N)Cc1ccc(O)cc1)[C@@H](C)O)[C@@H](C)O)C(C)C)[C@@H](C)CC)[C@@H](C)CC)C(=O)N[C@@H](CCC(=O)O)C(=O)NCC(=O)NCC(=O)N[C@@H](CCCCNC(=O)COCCOCCNC(=O)COCCOCCNC(=O)CC[C@H](NC(=O)CCCCCCCCCCCCC(=O)O)C(=O)O)C(=O)N[C@@H](CO)C(=O)N[C@@H](CO)C(=O)NCC(=O)N[C@@H](C)C(=O)N1CCC[C@H]1C(=O)N1CCC[C@H]1C(=O)N1CCC[C@H]1C(=O)N[C@@H](CO)C(N)=O
Turning to B2, the Ki was determined as 0.126 nM in assay [1] and 1.26 nM in assay [2].

B3: Y-Aib-EGT-αMeF(2F)-TSDV-αMeS-I-αMeL-LD-Orn-K((2-[2-(2-Amino-ethoxy)-ethoxy]-acetyl)2-(γ-Glu)-CO-(CH2)12-CO2H)AQ-Aib-EFI-(D-Glu)-αMeY-LIEGGK((2-[2-(2-Amino-ethox … (peptide)
peptide: YXEGTXTSDVXIXLDXKAQXEFIXXLIEGGKSSGAPPPS
modifications: Aib2, αMeF(2F)6, αMeS11, αMeL13, Orn16, K17(Z1), Aib20, D-Glu24, αMeY25, K31(Z1), C-term NH2; Z1=AEEA2-(γ-Glu)-CO-(CH2)12-CO2H
As to B3, the Ki turned out to be 0.161 nM in assay [1] and 1.17 nM in assay [2].

B4: Y-Aib-EGT-αMeF(2F)-TSD-4Pal-SI-αMeL-LD-Orn-K((2-[2-(2-Amino-ethoxy)-ethoxy]-acetyl)2-(γ-Glu)-CO-(CH2)12-CO2H)AQ-Aib-EFI-(D-Glu)-αMeY-LIEGGP S SGAPPP … (peptide)
peptide: YXEGTXTSDXSIXLDXKAQXEFIXXLIEGGPSSGAPPPSK
modifications: Aib2, αMeF(2F)6, 4Pal10, αMeL13, Orn16, K17(Z1), Aib20, D-Glu24, αMeY25, K40(Z1), C-term NH2; Z1=AEEA2-(γ-Glu)-CO-(CH2)12-CO2H
Turning to B4, the figures for the Ki in assay [1] and in assay [2] were 0.0807 nM and 3.13 nM, respectively.

B5: Y-Aib-EGT-αMeF(2F)-TSD-4Pal-Aib-I-αMeL-LD-Orn-K((2-[2-(2-Amino-ethoxy)-ethoxy]-acetyl)-(γ-Glu)-CO-(CH2)12-CO2H)AQ-Aib-EFI-(D-Glu)-αMeY-LIEGGPSSGAPPPSK((2-[2-(2- … (peptide)
peptide: YXEGTXTSDXXIXLDXKAQXEFIXXLIEGGPSSGAPPPSK
modifications: Aib2, αMeF(2F)6, 4Pal10, Aib11, αMeL13, Orn16, K17(Z1), Aib20, D-Glu24, αMeY25, K40(Z1), C-term NH2; Z1=AEEA-(γ-Glu)-CO-(CH2)12-CO2H
In the case of B5, the Ki came to 0.091 nM in assay [1] and 2.07 nM in assay [2].

B6: Y-Aib-EGT-αMeF(2F)-TSD-4Pal-Aib-I-αMeL-LD-Orn-QAQ-Aib-K((2-[2-(2-Amino-ethoxy)-ethoxy]-acetyl)2-(γ-Glu)-CO-(CH2)12-CO2H)FI-(D-Glu)-αMeY-LIEGGPSSGAPPPSK((2-[2-(2 … (peptide)
peptide: YXEGTXTSDXXIXLDXQAQXKFIXXLIEGGPSSGAPPPSK
modifications: Aib2, αMeF(2F)6, 4Pal10, Aib11, αMeL13, Orn16, Aib20, K21(Z1), D-Glu24, αMeY25, K40(Z1), C-term NH2; Z1=AEEA2-(γ-Glu)-CO-(CH2)12-CO2H
As for B6, the Ki in assay [1] amounted to 0.0912 nM; in assay [2] it was 0.947 nM.

B7: Y-Aib-EGT-αMeF(2F)-TSD-4Pal-Aib-I-αMeL-LD-Orn-QAQ-Aib-K((2-[2-(2-Amino-ethoxy)-ethoxy]-acetyl)2-(γ-Glu)-CO-(CH2)12-CO2H)FI-(D-Glu)-αMeY-LIK((2-[2-(2-Amino-ethox … (peptide)
peptide: YXEGTXTSDXXIXLDXQAQXKFIXXLIKGGPSSGAPPPS
modifications: Aib2, αMeF(2F)6, 4Pal10, Aib11, αMeL13, Orn16, Aib20, K21(Z1), D-Glu24, αMeY25, K28(Z1), C-term NH2; Z1=AEEA2-(γ-Glu)-CO-(CH2)12-CO2H
Take B7: the Ki in assay [1] amounted to 0.064 nM; in assay [2], 0.964 nM.

B8: Y-Aib-EGT-αMeF(2F)-TSDY-Aib-I-αMeL-LD-Orn-QAQ-Aib-Orn-FIK((2-[2-(2-Amino-ethoxy)-ethoxy]-acetyl)3-(γ-Glu)-CO-(CH2)12-CO2H)-αMeY-LIK((2-[2-(2-Amino-ethoxy)-ethox … (peptide)
peptide: YXEGTXTSDYXIXLDXQAQXXFIKXLIKGGPSSGAPPPS
modifications: Aib2, αMeF(2F)6, Aib11, αMeL13, Orn16, Aib20, Orn21, K24(Z1), αMeY25, K28(Z1), C-term NH2; Z1=AEEA3-(γ-Glu)-CO-(CH2)12-CO2H
Take B8: the Ki in assay [1] was found to be 0.0249 nM; in assay [2] it was 0.246 nM.

B9: Y-Aib-EGT-αMeF(2F)-TSD-4Pal-Aib-I-αMeL-LD-Orn-QAQ-Aib-EFIK((2-[2-(2-Amino-ethoxy)-ethoxy]-acetyl)2-(γ-Glu)-CO-(CH2)12-CO2H)-αMeY-LIK((2-[2-(2-Amino-ethoxy)-etho … (peptide)
peptide: YXEGTXTSDXXIXLDXQAQXEFIKXLIKGGPSSGAPPPS
modifications: Aib2, αMeF(2F)6, 4Pal10, Aib11, αMeL13, Orn16, Aib20, K24(Z1), αMeY25, K28(Z1), C-term NH2; Z1=AEEA2-(γ-Glu)-CO-(CH2)12-CO2H
Consider B9, for which the Ki in assay [1] came to 0.0375 nM; in assay [2], 1.33 nM.

B10: Y-Aib-EGT-αMeF(2F)-TSD-4Pal-Aib-I-αMeL-LD-Orn-QAQ-Aib-Orn-FIK((2-[2-(2-Amino-ethoxy)-ethoxy]-acetyl)-(γ-Glu)-CO-(CH2)12-CO2H)-αMeY-LIK((2-[2-(2-Amino-ethoxy)-et … (peptide)
peptide: YXEGTXTSDXXIXLDXQAQXXFIKXLIKGGPSSGAPPPS
modifications: Aib2, αMeF(2F)6, 4Pal10, Aib11, αMeL13, Orn16, Aib20, Orn21, K24(Z1), αMeY25, K28(Z1), C-term NH2; Z1=AEEA-(γ-Glu)-CO-(CH2)12-CO2H
As for B10, the values for the Ki in assay [1] and in assay [2] were 0.023 nM and 0.224 nM, respectively.

B11: Y-Aib-EGT-αMeF(2F)-TSD-4Pal-Aib-I-αMeL-LD-Orn-QAQ-Aib-EFIK((2-[2-(2-Amino-ethoxy)-ethoxy]-acetyl)3-(γ-Glu)-CO-(CH2)12-CO2H)-αMeY-LIK((2-[2-(2-Amino-ethoxy)-etho … (peptide)
peptide: YXEGTXTSDXXIXLDXQAQXEFIKXLIKGGPSSGAPPPS
modifications: Aib2, αMeF(2F)6, 4Pal10, Aib11, αMeL13, Orn16, Aib20, K24(Z1), αMeY25, K28(Z1), C-term NH2; Z1=AEEA3-(γ-Glu)-CO-(CH2)12-CO2H
Consider B11, for which the figures for the Ki in assay [1] and in assay [2] were 0.0528 nM and 0.433 nM, respectively.
